Consider ten molecules from patent US20130287684A1 (SYMPHOGEN A S, published 2013).

The labels stand for the following.
B1: antibody 4785 (antibody, human IgG1, kappa, V domains shown)
VH: EVQLQQSGPELVMPGASVKISCKASGYSFTSYYVHWVKQRPGQGLEWIGWIYPGSGHTKYNEKFKDKATLTADTSSSTAYMQLSSLTSEDSAVYYCARPPYYSNYADVWGTGTTVTVSS
VL: DIVMTQSPSSLTVTAGEKVTMSCKSSQSLLNSGNQKNYLTWYQQKPGQPPKLLIYWASTRESGVPDRFTGSGSGTDFTLTISSVQAEDLAVYYCQSDYSYPYTFGGGTKLEIKR
notes: Chimeric: murine variable regions, human kappa constant region, expressed as full-length IgG
B2: antibody 5143 (antibody, human IgG1, kappa, V domains shown)
VH: B1 VH with E1Q, M13K, V34I, D66G
VL: B1 VL with L39M, P49S, S96N, I112L
notes: as for B1
B3: antibody 5106 (antibody, human IgG1, kappa, V domains shown)
VH: EVKLVESGGDLVKPGESLKLSCAASGFTFSSFAMSWVRQTPEKRLEWVATISDGGSHLYYPDNVKGRFTISRDNAKNNLYLQMSHLKSEDTAMYYCARGILDYWGQGTSVTVSS
VL: DIVMTQATSSLSASLGDRVTISCSASQDINNYLNWYQQKPDGTIKLLIYYTSSLHSGVPSRFSGSGSGTDYSLTISNLEPEDIATYYCQQYSRIPYTFGGGTKLEIKR
notes: as for B1
B4: antibody 5101 (antibody, human IgG1, kappa, V domains shown)
VH: B3 VH with D10G, E16G, F32Y, A33G, S52R, S56G, H57Y, L58T, P61S, K76Q
VL: QIVLTQSPSSLSASLGDRVTISCRASQDISNYLNWFQQRPDGTVKLLIYYTSRLHSGVPSRFSGSGSGTDYSLTISNLEQEDIATYFCQQGNTLPYTFGGGTKLELKR
notes: as for B1
B5: antibody 5038 (antibody, human IgG1, kappa, V domains shown)
VH: EVKLVESGPGLVKPSQSLSLTCSVTGYSITSGFYWTWIRQFPGNKLEWMGFISYDGSNNYNPSLKNRISITRDTSKNQFFLKLNSVTTEDTATYYCARGGGYYGNLFDYWGQGTTLTVSS
VL: DIVMTQTTSSLSASLGDRVTISCRPSQDISNYVNWFQQKPGGTVKLLIFHTSRLHSGVPSRFSGSGSGTDYSLTISTLEQEDIAIYFCQQGITLPWTFGGGTKLEIKR
notes: as for B1
B6: antibody 5259 (antibody, human IgG1, kappa, V domains shown)
VH: EVQLVESGPGLVAPSQSLSITCTVSGFSLSRYTIHWVRQPPGKGLEWLGMIWGGGSTDYNSALKSRLSISKDNSKSQLFLKMNSLQTDDTAIYYCARKGITTTGFDYWGQGTTLTVSS
VL: NIVLTQSPAIMSASPGEKVTMTCSASSSVSYMFWYQQKPGSSPRLLIYDTSNLASGVPVRFSGSGSGTSYSLTISRMEAEDAATYYCQQLNSYPPTFGGGTKLEIKR
notes: as for B1
B7: antibody 5144 (antibody, human IgG1, kappa, V domains shown)
VH: B6 VH with E1Q, V5K, T33S, I34V, S68N, S70N, L78V, L80F, I92M, A96V
VL: B6 VL with N1H, F33Y, G40R, E80D, N91S, I105L
notes: as for B1
B8: antibody 4935 (antibody, human IgG1, kappa, V domains shown)
VH: QIQLVQSGPELVKPGASVRISCKASGYTFTSYYIHWVKQRPGQGLEWIGWIYPGNVHTKYTEKFKGKATLTADKSSSTAYMHLSSLTSEDSAVYFCVRRYGYDGDWFAYWGQGTLVTVSS
VL: DIQMTQSPASLAVSLGQRATISCRASESVDSYGNTFMHWYQQKPGQPPKLLIYRASNLESGIPARFSGSGSRTDFTLTINPVEADDVATYYCQQSNEDPWTFGGGTKLEIKR
notes: as for B1
B9: antibody 4889 (antibody, human IgG1, kappa, V domains shown)
VH: EVQLVESGPGLVKPSQSLSLTCSVTGYSITSAYYWNWIRQFPGNKLEWMGYVSYDGSNTYNPSLKNRISITRDTSKNQFFLKLISLTTEDTATYYCAREGDYGYSDYWGQGTTLTVSS
VL: DIVMTQSTSSLSASLGDRVTVSCRASQDISNYLNWYQQKPDGTIKLLIYYTSRLHSGVPSRFSGSGSGTDYSLTISNLDQEDIATYFCQQSNTLPWTFGGGTKLEIKR
notes: as for B1
B10: antibody 5082 (antibody, human IgG1, kappa, V domains shown)
VH: B9 VH with V5K, L46V, V52I, S53G, S57R, I84N, A97S
VL: B9 VL with S7A, S30N, I44V, H55Q, T69I, D79E, I83F, A84V, N92E, I106L
notes: Chimeric: murine variable regions, human IGHG1 and kappa constant regions; also called mAb 5082

Substitutions are numbered along the chain they refer to.

T1 sequence (P21860 20-643 limits assumed): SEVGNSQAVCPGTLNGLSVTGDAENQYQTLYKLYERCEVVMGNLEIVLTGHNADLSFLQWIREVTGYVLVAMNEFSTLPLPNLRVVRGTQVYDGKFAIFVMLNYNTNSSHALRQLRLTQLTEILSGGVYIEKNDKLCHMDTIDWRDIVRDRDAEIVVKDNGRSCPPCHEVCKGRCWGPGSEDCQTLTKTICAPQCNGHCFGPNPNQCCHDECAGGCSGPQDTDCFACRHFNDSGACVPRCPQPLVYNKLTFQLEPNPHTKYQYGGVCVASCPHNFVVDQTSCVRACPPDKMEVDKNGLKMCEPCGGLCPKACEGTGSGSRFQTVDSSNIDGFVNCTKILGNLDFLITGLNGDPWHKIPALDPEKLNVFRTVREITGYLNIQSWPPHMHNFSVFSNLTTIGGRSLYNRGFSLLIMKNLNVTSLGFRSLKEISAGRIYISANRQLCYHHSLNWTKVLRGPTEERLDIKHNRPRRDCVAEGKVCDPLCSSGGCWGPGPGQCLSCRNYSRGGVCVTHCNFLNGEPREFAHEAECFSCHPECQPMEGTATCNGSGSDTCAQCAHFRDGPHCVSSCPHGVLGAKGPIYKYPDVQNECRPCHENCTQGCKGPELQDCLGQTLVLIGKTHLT
T2 sequence (P21860 20-643): as the sequence (P21860 20-643 limits assumed) above

The first assay has as its target T1, human HER3 receptor (human, UniProt P21860 20-643).
T1 construct: also called ErbB3
The assay is described as follows: method not named there (Example 1: HER3 ELISA and confocal microscopy on MCF-7 cells). As for the experimental part: Briefly, Nunc Maxisorb plates (cat.#464718) were coated with 1 μg/ml HER3 protein (R&D Systems cat.#348-RB), diluted in PBS at 4° C. overnight. Prior to blocking in 50 μl 2% milk-PBS+0.05% Tween 20 the plates were washed once with PBS-T. The plates were washed once with PBS-T and 20 μl of 2% milk-PBS-T, and 10 μl supernatants from FreeStyle293 transfectants were added and incubated for 1 hour at room temperature, after which the plates were washed once with PBS-T, 20 μl per well. Secondary antibody (HRP-Goat-anti-human kappa light chain, Serotec, cat.# STAR 100P) diluted 1:25000 in 2% milk-PBS-T was added to detect the antibodies bound to the wells and incubated for 1 hour at room temperature. The plates were washed once in PBS-T before addition of 25 μl substrate (Kem-En-Tec Diagnostics, cat.#4518) that was incubated for 5 min. 25 μl 1M sulphuric acid was added after the incubation to stop the reaction. Specific signal was detected on an ELISA reader at 450 nm. From the ELISA data 480 positive antibody clones were identified and selected for sequence analysis and validation of binding to HER3.
The 119 clones were screened for binding to the HER3-overexpressing breast cancer cell line (MCF-7) using confocal microscopy. 10,000 MCF-7 cells were seeded into each well of 384-well cell carrier plates (Perkin Elmer, cat.#6007439) and allowed to attach overnight. The media was again discarded and the cells were washed and fixed with 2% formaldehyde solution (Aldrich cat.#533998). After washing, 40 μl of antibody supernatant was transferred to each well and plates were incubated for 2 hours, after which the media in the wells was discarded and 30 μl new media containing 2 μg/ml of Alexa-488 labelled goat anti-human IgG (H+L, Invitrogen cat.# A11013), 2 μg/ml CellMask Blue (Invitrogen cat.# H34558) and 1 μM Hoechst 33342 (Invitrogen cat.# H3570) was added to each well and plates were incubated for another 30 minutes. The level of fluorescence was then measured using an OPERA high throughput confocal microscope (Perkin Elmer).
As for B1, the binding result is “binds”.

B2: the binding result was “binds”. With B3, the binding result was “binds”. For the molecule B4, the binding result was “binds”. Consider B5, for which the binding result was “binds”. The same measure, in the same setting: the result for B6 reads “binds”; that for B7, “binds”.

Turning to B8, the binding result is recorded as “binds”. In the case of B9, the binding result is “binds”. For the molecule B10, the binding result was “binds”.

Another assay addresses T2, fully human HER3 ECD construct with N-terminal histidine tag (human, UniProt P21860 20-643).
T2 construct: extracellular domain; Transiently expressed in Hek 293 cells, purified on nickel NTA; also called fully human ECD construct
The assay is described as follows: ELISA on coated His-tagged HER3 ECD constructs. An excerpt:
Because the anti-HER3 antibody panel was raised in mice, antibodies are not expected to recognize epitopes present on murine HER3 due to the concept of “self tolerance”. Consequently, chimeric receptor constructs in which the human sequences coding for individual domains are replaced by murine sequences can be employed for epitope mapping purposes, since the antibodies are not expected to bind the murines sequence inserted in the human HER3 construct. Human and murine HER3 mRNA sequences (accession number M29366 and NM_{—}010153.1 respectively) were downloaded from NCBI, and extracellular domains I-IV were assigned as described by Kani et al. (J. Biol. Chem. (2005) 280:8238-8247). Chimeric human/murine domain exchange variants, in which each of the four human extracellular HER3 domains were replaced by the respective murine DNA sequence, were provided with an N-terminal histidine tag, gene synthesized and transiently expressed in Hek 293 cells. A fully human and a murine ECD construct were used as positive and negative controls, respectively. […] The next day wells were blocked with 1% BSA/PBS-T and titrations of antibodies diluted in blocking buffer were added. […]
The domain mapping of anti-HER3 antibodies is shown in FIGS. 27-32, which is a titration of anti-HER3 antibodies and negative controls against coated HER3 antigens. Bound antibody was detected with an anti-human Fc antibody. […]
On to B3, for which the binding result is recorded as “binds”. Consider B4, for which the binding result is “binds”.
